Laboratory results taken from paper PMC5670330.

Molecular target: GFP-SR-BI (scavenger receptor BI) on CHO cells (UniProt Q8WTV0)
Sequence of UniProt Q8WTV0 (Q8WTV0 whole entry): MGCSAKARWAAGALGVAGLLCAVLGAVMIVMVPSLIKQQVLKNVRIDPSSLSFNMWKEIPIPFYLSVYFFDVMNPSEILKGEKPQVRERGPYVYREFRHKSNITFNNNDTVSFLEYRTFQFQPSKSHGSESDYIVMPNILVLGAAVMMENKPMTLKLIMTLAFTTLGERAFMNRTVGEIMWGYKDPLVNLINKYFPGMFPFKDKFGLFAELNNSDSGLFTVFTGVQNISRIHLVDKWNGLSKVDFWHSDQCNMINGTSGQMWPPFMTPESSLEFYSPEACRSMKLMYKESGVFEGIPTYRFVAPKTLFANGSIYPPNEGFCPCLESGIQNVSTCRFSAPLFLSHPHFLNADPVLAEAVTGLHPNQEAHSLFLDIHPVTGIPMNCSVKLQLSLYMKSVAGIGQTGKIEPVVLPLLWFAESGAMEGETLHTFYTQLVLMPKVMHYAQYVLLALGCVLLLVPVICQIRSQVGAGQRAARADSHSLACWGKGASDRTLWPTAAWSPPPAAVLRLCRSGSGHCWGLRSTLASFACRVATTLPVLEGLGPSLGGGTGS

## Alexa Fluor 568 labeled human high-density lipoprotein (from UniProt P02647 19-267) (complex)
  AF568-HDL internalization by HCCMECs after pre-treatment with 10 ug/mL blocking anti-SR-BI scFv (percent decrease): 57%
